Target: T1, human complement component C1q (human, UniProt P02745 23-245; P02746 28-253; P02747 29-245)
T1 construct: complement C1q subcomponent subunit A, human; complement C1q subcomponent subunit B, human; complement C1q subcomponent subunit C, human; Detected with fluorescent anti-C1q; also called complement C1q; source: bought: Sigma (C1740); copies: + +
Test: glycan array; AEAB-labelled D. immitis neutral N-glycan pool printed on NHS-modified glass slides; incubated first with human CRP (5 µg/ml), then serially with C1q and fluorescent anti-C1q; fluorescence read-out, mean of 10 spots
Conditions: both partners purified

T1 sequence (P02745 23-245, chain 1 of 3): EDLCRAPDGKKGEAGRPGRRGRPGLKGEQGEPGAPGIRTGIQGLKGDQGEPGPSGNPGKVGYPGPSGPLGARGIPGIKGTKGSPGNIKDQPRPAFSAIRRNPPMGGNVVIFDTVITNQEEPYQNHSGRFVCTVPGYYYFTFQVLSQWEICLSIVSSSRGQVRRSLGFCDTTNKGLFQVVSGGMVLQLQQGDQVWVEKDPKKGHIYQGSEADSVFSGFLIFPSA
T1 sequence (P02746 28-253, chain 2 of 3): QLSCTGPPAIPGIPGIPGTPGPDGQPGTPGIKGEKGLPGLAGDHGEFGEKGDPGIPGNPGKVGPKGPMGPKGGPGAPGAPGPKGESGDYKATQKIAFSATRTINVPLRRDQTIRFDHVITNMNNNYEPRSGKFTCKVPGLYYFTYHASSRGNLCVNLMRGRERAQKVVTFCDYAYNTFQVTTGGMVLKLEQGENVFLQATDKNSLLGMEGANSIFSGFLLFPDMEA
T1 sequence (P02747 29-245, chain 3 of 3): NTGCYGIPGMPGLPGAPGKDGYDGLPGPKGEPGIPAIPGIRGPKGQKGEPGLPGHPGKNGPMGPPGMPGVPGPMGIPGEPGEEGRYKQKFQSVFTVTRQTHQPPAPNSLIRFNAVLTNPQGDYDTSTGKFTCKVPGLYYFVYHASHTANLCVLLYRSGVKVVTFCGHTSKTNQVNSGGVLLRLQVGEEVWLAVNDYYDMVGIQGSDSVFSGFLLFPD

B1: natural human C-reactive protein (natural protein, UniProt P02741 19-224, looked up)
chain: QTDMSRKAFVFPKESDTSYVSLKAPLTKPLKAFTVCLHFYTELSSTRGYSIFSYATKRQDNEILIFWSKDIGYSFTVGGSEILFEVPEVTVAPVHICTSWESASGIVEFWVDGKPRVRKSLKKGYTVGAEASIILGQEQDSFGGNFEGSQSLVGDIGNVNMWDFVLSPDEINTIYLGGPFSPNVLNWRALKYEVQGEVFTKPQLWP
notes: C-reactive protein, human, natural; called pentameric in the discussion; also called CRP; human pentraxin C-reactive protein; source: bought: MPBio (215231505)
  binding result: binds

From PMC6325117, “Highly modified and immunoactive N-glycans of the canine heartworm” (Nature Communications, 2019)
